# Biological target: Biotinylated C4b (UniProt P0C0L4)
# Assay: SPR, biotinylated C4b on streptavidin chip, 1:1 steady-state affinity model
# Chain of mini-C4BP (P08603 other isoform, or with tags, fused parts or gaps): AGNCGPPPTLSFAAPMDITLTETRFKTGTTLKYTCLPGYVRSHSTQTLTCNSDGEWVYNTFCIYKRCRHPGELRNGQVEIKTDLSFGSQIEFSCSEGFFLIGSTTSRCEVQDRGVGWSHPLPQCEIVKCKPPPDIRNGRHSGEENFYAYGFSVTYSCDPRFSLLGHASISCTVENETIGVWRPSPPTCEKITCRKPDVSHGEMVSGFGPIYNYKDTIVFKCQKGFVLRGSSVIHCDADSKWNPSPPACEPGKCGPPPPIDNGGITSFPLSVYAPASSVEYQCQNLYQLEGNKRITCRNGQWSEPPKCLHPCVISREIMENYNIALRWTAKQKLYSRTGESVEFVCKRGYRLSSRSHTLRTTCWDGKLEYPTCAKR
substance,measurement,value
mini-C4BP (from UniProt P08603 1107-1231),Kd,600 nM

# Source: patent EP4559472A1
